Assay results: paper PMC13678254, “Exploring the bistable equilibrium of methylated CpG DNA recognition by the MBD2 protein”

Target: MBD2 MBD S189A (Homo sapiens, UniProt Q9UBB5 150-214, S189A)
Test: fluorescence polarization; 3 mM Mg2+; 10 nM DNA; FP: 10 mM HEPES pH 7.5, 50 mM NaCl, 3 mM MgCl2, 0.1 mM EDTA, 1 mM DTT, 0.02% sodium azide; 10 nM 3'FAM DNA; temperature not stated
Conditions: protein: recombinant; tags: thioredoxin/His tag (modified pET32a) removed by TEV protease; label: 3'FAM on forward strand; blunt

Sequence of MBD2 MBD S189A (Q9UBB5 150-214 S189A): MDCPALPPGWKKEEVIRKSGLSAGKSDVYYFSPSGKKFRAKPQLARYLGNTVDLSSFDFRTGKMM

B1: 17-bp symmetrically methylated mCpG DNA, 3'FAM (dsDNA)
DNA 1: GAGGCGCTCGGCGGCAG
DNA 2: CTGCCGCCGAGCGCCTC
modifications: 5-methylcytosine at position 9 of strand 1 and at position 8 of strand 2 (symmetric mCpG)
**Q.** With B1 as the binder, how does the Kd read?
**A.** 11.5 ± 0.6 µM
